Assay [1] concerns the target αvβ5 integrin (soluble / detergent-solubilized) (UniProt P06756 31-1048; P18084 24-799). Description: yeast display, flow cytometry. In general terms: A flow cytometer gives signals particle by particle.
The target of assay [2] is T1, αvβ3 integrin on cells (U87MG glioblastoma cells; K562-αvβ3 cells) (UniProt P06756 31-1048; P05106 27-788).
T1 construct: whole, on cells; also called cell surface αvβ3 integrin
Briefly: competition with ^125I-echistatin on U87MG cells; Cy5.5-labeled peptide.

In assay [3] the target is T1, αvβ3 integrin on cells (U87MG …). Briefly: competing off ^125I-echistatin, U87MG cells.
Assay [4] has the same target. Briefly: direct equilibrium titration on U87MG cells, anti-His flow cytometry.
Assay [5] has the same target. Briefly: direct equilibrium titration on K562-αvβ3 cells, anti-His flow cytometry.
Assay [6] has the same target. Briefly: cell-based or functional assay.
The target of assay [7] is T2, αiibβ3 integrin on K562 cells stably transfected with αiibβ3 (UniProt P08514 32-1039; P05106 27-788).
T2 construct: whole, on cells; also called K562-αiibβ3; K562-αiiβ3
Description: titration on K562-αiibβ3 cells up to 5 µM, not saturated.

The target of assay [8] is T1, αvβ3 integrin on cells (U87MG …). Description: competition with ^125I-echistatin on U87MG cells (also express αvβ5, α5β1); unlabeled peptide.

The text below walks through data of patent US20210023171A1 (published 2021).

No end group written: not given here. Some results are limits rather than exact numbers.

T1 sequence (P06756 31-1048, chain 1 of 2): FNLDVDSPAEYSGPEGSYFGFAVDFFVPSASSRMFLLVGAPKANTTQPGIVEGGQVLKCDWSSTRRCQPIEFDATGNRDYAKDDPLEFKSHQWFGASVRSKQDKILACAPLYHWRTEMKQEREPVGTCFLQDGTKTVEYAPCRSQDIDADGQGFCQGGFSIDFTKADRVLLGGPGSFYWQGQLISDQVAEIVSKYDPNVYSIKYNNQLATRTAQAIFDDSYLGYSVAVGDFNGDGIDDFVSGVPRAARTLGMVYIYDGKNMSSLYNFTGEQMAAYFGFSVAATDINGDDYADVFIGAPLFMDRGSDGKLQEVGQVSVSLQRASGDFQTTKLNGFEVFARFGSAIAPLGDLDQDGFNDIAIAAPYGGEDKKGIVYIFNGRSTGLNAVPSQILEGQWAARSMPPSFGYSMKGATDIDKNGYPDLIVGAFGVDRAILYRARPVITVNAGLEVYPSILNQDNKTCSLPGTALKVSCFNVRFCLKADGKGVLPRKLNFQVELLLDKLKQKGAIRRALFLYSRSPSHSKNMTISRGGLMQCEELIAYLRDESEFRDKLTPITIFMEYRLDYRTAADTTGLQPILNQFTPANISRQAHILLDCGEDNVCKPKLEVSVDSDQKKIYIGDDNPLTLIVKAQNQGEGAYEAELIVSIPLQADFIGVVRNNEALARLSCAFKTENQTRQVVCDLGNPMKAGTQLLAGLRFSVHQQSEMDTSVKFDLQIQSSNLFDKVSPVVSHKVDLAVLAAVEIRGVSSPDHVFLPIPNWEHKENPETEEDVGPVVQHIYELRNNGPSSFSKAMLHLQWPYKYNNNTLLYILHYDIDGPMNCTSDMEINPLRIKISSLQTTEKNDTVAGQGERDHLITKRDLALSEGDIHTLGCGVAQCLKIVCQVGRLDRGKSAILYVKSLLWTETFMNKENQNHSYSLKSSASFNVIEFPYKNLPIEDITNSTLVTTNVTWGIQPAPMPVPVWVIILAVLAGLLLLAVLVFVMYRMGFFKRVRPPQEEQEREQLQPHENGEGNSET
T1 sequence (P05106 27-788, chain 2 of 2): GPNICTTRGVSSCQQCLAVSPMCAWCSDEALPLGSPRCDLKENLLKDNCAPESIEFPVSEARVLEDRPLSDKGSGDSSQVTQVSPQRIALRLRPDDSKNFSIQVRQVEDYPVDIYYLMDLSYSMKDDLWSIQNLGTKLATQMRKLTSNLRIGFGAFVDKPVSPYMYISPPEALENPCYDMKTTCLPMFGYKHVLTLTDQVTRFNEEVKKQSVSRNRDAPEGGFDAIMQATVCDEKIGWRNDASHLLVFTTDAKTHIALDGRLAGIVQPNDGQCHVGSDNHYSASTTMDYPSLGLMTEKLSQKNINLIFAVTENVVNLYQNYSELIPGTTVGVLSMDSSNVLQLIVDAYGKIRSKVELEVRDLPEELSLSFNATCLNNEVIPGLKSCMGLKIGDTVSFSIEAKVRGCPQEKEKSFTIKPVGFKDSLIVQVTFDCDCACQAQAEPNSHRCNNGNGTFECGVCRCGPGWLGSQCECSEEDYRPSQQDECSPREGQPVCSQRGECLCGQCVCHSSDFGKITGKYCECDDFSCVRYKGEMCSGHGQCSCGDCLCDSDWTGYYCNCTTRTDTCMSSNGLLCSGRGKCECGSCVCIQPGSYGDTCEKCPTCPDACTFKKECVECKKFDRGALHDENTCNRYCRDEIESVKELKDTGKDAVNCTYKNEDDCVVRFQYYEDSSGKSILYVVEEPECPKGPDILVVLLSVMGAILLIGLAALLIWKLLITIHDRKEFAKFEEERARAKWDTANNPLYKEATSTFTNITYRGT
Chain of αvβ5 integrin (soluble / detergent-solubilized) (P06756 31-1048, chain 1 of 2): as the sequence (P06756 31-1048, chain 1 of 2) above
Chain of αvβ5 integrin (soluble / detergent-solubilized) (P18084 24-799, chain 2 of 2): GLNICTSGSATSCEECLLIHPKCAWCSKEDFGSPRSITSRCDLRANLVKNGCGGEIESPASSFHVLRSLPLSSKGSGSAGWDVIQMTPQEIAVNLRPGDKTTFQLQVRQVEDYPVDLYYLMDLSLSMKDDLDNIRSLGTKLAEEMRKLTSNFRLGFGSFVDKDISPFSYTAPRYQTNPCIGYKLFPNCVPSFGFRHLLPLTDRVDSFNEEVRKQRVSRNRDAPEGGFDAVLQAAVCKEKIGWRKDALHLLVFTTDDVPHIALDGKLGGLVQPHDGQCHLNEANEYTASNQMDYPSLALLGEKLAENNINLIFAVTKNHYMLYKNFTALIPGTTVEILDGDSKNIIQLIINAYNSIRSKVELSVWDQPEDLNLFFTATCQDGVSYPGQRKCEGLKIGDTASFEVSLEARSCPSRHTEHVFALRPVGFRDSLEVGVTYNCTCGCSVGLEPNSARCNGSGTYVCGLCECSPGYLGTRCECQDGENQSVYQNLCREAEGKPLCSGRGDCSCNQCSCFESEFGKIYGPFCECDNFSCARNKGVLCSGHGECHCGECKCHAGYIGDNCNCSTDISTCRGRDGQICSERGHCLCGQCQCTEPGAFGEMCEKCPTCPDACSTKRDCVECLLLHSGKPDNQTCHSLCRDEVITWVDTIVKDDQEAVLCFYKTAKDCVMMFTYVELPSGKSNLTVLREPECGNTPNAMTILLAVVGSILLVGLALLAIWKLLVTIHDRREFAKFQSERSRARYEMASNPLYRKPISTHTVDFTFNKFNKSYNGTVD

B1: AgRP 7C loop 1 clone 1-1 (yeast-displayed) (peptide)
chain: GCASGSGDPCLGQQVPCCDPAATCYCYGRGDNDLRCYCR
modifications: ends and bridges not checked; cysteine pairing not given here
For the molecule B1, in assay [1], the binding result is given as “no binding (tested: 50 nM)”.

B2: AgRP 7C loop 2 clone 2-5 (yeast-displayed) (peptide)
chain: GCVRLHESCGSWGTLACCDPAATCYCYGRGDNDLRCYCR
modifications: ends and bridges not checked; cysteine pairing not given here
As for B2, the binding result in assay [1] is listed as “no binding (tested: 50 nM)”.

B3: Cy5.5-labeled loop-grafted FN-RGD (peptide)
chain: {Cy5.5}-GCVTGRGDSPASSCSQDSDCLAGCVCGPNGFCG
modifications: cysteine pairing not given here
notes: also called Cy5.5-labeled FN-RGD
For orientation: IC50 means the concentration needed to halve the response being measured. Read a high IC50 as weaker potency. B3 displayed an IC50 in assay [2] of 33.9 nM.

B4: AgRP 7C loop 3 clone 3-2 (yeast-displayed) (peptide)
chain: GCVRLHESCLGQQVPCCSRSDAHCYCYGRGDNDLRCYCR
modifications: ends and bridges not checked; cysteine pairing not given here
As to B4, in assay [1], the binding result is recorded as “no binding (tested: 50 nM)”.

B5: 6E (synthesized Mini-RGD-AgRP peptide) (peptide)
chain: GCVRLHESCLGQQVPCCDPAATCYCVERGDGNRRCYCR
modifications: ends and bridges not checked; cysteine pairing not given here
On to B5, for which the IC50 in assay [3] came out at 130 nM.

B6: AgRP 7C loop 2 clone 2-3 (yeast-displayed) (peptide)
chain: GCVRLHESCADTLMAACCDPAATCYCYGRGDNDLRCYCR
modifications: ends and bridges not checked; cysteine pairing not given here
Regarding B6, the binding result in assay [1] is “no binding (tested: 50 nM)”.

B7: 3F (synthesized Mini-RGD-AgRP peptide) (peptide)
chain: GCVRLHESCLGQQVPCCDPAATCYCQYRGDGMKHCYCR
modifications: ends and bridges not checked; cysteine pairing not given here
The molecule B7 registered an IC50 in assay [3] of 880 nM.

B8: AgRP 7C loop 3 clone 3-3 (yeast-displayed) (peptide)
chain: GCVRLHESCLGQQVPCCSGLGNRCYCYGRGDNDLRCYCR
modifications: ends and bridges not checked; cysteine pairing not given here
Turning to B8, the binding result in assay [1] is “no binding (tested: 50 nM)”.

B9: AgRP 7C loop 2 clone 2-6 (yeast-displayed) (peptide)
chain: GCVRLHESCWGSILGHCCDPAATCYCYGRGDNDLRCYCR
modifications: ends and bridges not checked; cysteine pairing not given here
B9: the binding result in assay [1] is on record as “no binding (tested: 50 nM)”.

B10: AgRP 7C loop 2 clone 2-4 (yeast-displayed) (peptide)
chain: GCVRLHESCEWGRGGDCCDPAATCYCYGRGDNDLRCYCR
modifications: ends and bridges not checked; cysteine pairing not given here
Consider B10, for which the binding result in assay [1] is “no binding (tested: 50 nM)”.

B11: AgRP 7C loop 1 clone 1-6 (yeast-displayed) (peptide)
chain: GCDLYGSHDCLGQQVPCCDPAATCYCYGRGDNDLRCYCR
modifications: ends and bridges not checked; cysteine pairing not given here
Consider B11, for which the binding result in assay [1] was “no binding (tested: 50 nM)”.

B12: AgRP 7C loop 2 clone 2-1 (yeast-displayed) (peptide)
chain: GCVRLHESCGGSVGVECCDPAATCYCYGRGDNDLRCYCR
modifications: ends and bridges not checked; cysteine pairing not given here
Turning to B12, the binding result in assay [1] is “no binding (tested: 50 nM)”.

B13: AgRP 7C loop 2 clone 2-2 (yeast-displayed) (peptide)
chain: GCVRLHESCDPRVGVRCCDPAATCYCYGRGDNDLRCYCR
modifications: ends and bridges not checked; cysteine pairing not given here
For the molecule B13, the binding result in assay [1] is on record as “no binding (tested: 50 nM)”.

B14: Cy5.5-labeled Miniprotein 1.5B (peptide)
chain: {Cy5.5}-GCTIGRGDWAPSECSQDSDCLAGCVCGPNGFCG
modifications: cysteine pairing not given here
In assay [2], B14 registered an IC50 of 6.4 nM.

B15: AgRP 7C loop 1 clone 1-3 (yeast-displayed) (peptide)
chain: GCLAGLSGPCLGQQVPCCDPAATCYCYGRGDNDLRCYCR
modifications: ends and bridges not checked; cysteine pairing not given here
In the case of B15, in assay [1], the binding result is on record as “no binding (tested: 50 nM)”.

B16: recombinant engineered AgRP peptide 6C (FLAG and hexahistidine tagged) (peptide)
chain: DYKDDDDKGCVRLHESCLGQQVPCCDPAATCYCTGRGDEKLRCYCRHHHHHH
A word on the Kd: it is the free concentration of one partner at which half of the binding sites on the other are occupied at equilibrium, for simple one-to-one binding. Low readings indicate a tighter complex, high ones a looser complex. Regarding B16, the Kd in assay [4] is 13 nM; in assay [5], 15 nM; in assay [7], over 100 nM. Moreover, in assay [6], the “adhesion (IC50; nM) of K562-αvβ3 cells to vitronectin-coated wells” value (“adhesion (IC50; nM) of K562-αvβ3 cells” for short) amounted to 650 nM.

B17: recombinant engineered AgRP peptide 7J (FLAG and hexahistidine tagged) (peptide)
chain: DYKDDDDKGCVRLHESCLGQQVPCCDPAATCYCEGRGDRDMKCYCRHHHHHH
notes: also called 7J (6B); 6B
B17: the Kd was 8.3 nM in assay [4], 16 nM in assay [5] and over 100 nM in assay [7]. Besides, in assay [6], the “adhesion (IC50; nM) of K562-αvβ3 cells” value was 200 nM.

B18: recombinant engineered AgRP peptide 7E (FLAG and hexahistidine tagged) (peptide)
chain: DYKDDDDKGCVRLHESCLGQQVPCCDPAATCYCVGRGDDNLKCYCRHHHHHH
As for B18, the Kd in assay [4] was 1.4 nM; in assay [5], 1.6 nM; in assay [7], over 100 nM. Also, the “adhesion (IC50; nM) of K562-αvβ3 cells” value in assay [6] was determined as 9.9 nM.

B19: Miniprotein 1.5B (synthetic, soluble) (peptide)
chain: GCTIGRGDWAPSECSQDSDCLAGCVCGPNGFCG
notes: also called RGD-miniprotein 1.5B
In assay [8], B19 gave an IC50 of 13 nM.

B20: AgRP 7C loop 1 clone 1-5 (yeast-displayed) (peptide)
chain: GCIASGLFGCLGQQVPCCDPAATCYCYGRGDNDLRCYCR
modifications: ends and bridges not checked; cysteine pairing not given here
Take B20: in assay [1], the binding result was “no binding (tested: 50 nM)”.

B21: Loop-grafted FN-RGD (synthetic, soluble) (peptide)
chain: GCVTGRGDSPASSCSQDSDCLAGCVCGPNGFCG
notes: also called FN-RGD2; RGD-EETI #3
For B21, in assay [8], the concentration for half-maximal inhibition (IC50) stood at 370 nM.

B22: Cy5.5-labeled echistatin (ligand)
chain: QCESGPCCRNCKFLKEGTICKRARGDDMDDYCNGKTCDCPRNPHKGPAT
modifications: ends and bridges not checked; also: Cy5.5-labeled, site not given here
As for B22, the IC50 in assay [2] came to 2.6 nM.

B23: Cy5.5-labeled Miniprotein 2.5F (peptide)
chain: {Cy5.5}-GCPRPRGDNPPLTCSQDSDCLAGCVCGPNGFCG
modifications: cysteine pairing not given here
The molecule B23 had an IC50 in assay [2] of 3.4 nM.

B24: AgRP 7C loop 1 clone 1-4 (yeast-displayed) (peptide)
chain: GCRSASVGGCLGQQVPCCDPAATCYCYGRGDNDLRCYCR
modifications: ends and bridges not checked; cysteine pairing not given here
On to B24, for which the binding result in assay [1] is on record as “no binding (tested: 50 nM)”.

B25: 6F (synthesized Mini-RGD-AgRP peptide) (peptide)
chain: GCVRLHESCLGQQVPCCDPAATCYCESRGDVVRKCYCR
modifications: ends and bridges not checked; cysteine pairing not given here
In assay [3], B25 gave an IC50 of 410 nM.

B26: Miniprotein 2.5F (synthetic, soluble) (peptide)
chain: GCPRPRGDNPPLTCSQDSDCLAGCVCGPNGFCG
notes: also called knottin peptide 2.5F; RGD-miniprotein 2.5F
B26 gave an IC50 in assay [8] of 26 nM.

B27: AgRP 7C loop 3 clone 3-5 (yeast-displayed) (peptide)
chain: GCVRLHESCLGQQVPCCTVTNSRCYCYGRGDNDLRCYCR
B27: the binding result in assay [1] was “no binding (tested: 50 nM)”.

B28: AgRP 7C loop 3 clone 3-1 (yeast-displayed) (peptide)
chain: GCVRLHESCLGQQVPCCGTPKPECYCYGRGDNDLRCYCR
modifications: ends and bridges not checked; cysteine pairing not given here
For the molecule B28, the binding result in assay [1] is reported as “no binding (tested: 50 nM)”.

B29: AgRP 7C loop 3 clone 3-6 (yeast-displayed) (peptide)
chain: GCVRLHESCLGQQVPCCTSKQHHCYCYGRGDNDLRCYCR
Take B29: in assay [1], the binding result is reported as “no binding (tested: 50 nM)”.

B30: AgRP 7C loop 3 clone 3-4 (yeast-displayed) (peptide)
chain: GCVRLHESCLGQQVPCCQGREQSCYCYGRGDNDLRCYCR
With B30, the binding result in assay [1] is “no binding (tested: 50 nM)”.

B31: Cy5.5-labeled Miniprotein 2.5D (peptide)
chain: {Cy5.5}-GCPQGRGDWAPTSCSQDSDCRAGCVCGPNGFCG
modifications: cysteine pairing not given here
Molecule B31 had an IC50 in assay [2] of 4.2 nM.

B32: AgRP 7C loop 1 clone 1-2 (yeast-displayed) (peptide)
chain: GCRPLGDAGCLGQQVPCCDPAATCYCYGRGDNDLRCYCR
modifications: ends and bridges not checked; cysteine pairing not given here
Regarding B32, the binding result in assay [1] is reported as “no binding (tested: 50 nM)”.
